From the supplement of paper PMC6379048 come the findings set out here.

Assay in all cases: EC50 of free RNA motif oligo competing protein binding to immobilised probe
One data set addresses T1, ISY1 (UniProt Q9ULR0).
T1 sequence: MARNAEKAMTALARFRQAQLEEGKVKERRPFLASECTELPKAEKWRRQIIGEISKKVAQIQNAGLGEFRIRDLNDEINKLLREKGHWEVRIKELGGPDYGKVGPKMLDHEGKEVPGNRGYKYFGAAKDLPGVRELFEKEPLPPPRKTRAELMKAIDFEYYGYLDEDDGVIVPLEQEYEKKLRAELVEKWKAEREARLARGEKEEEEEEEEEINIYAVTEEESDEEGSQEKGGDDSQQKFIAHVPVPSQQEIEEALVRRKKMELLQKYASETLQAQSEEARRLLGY
A digest of the protocol: (§1)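 Kd was calculated as EC50, taken from a four-parameter log-logistic fit, multiplied by a protein-dependent depletion factor. The assay used HEK293-FT lysate (2.5 mg protein/well) pre-incubated for 1 h at 4°C with free RNA oligos (0 nM to 30 μM), then incubated for 30 min at 4°C with the matching oligos bound through a 5′-amino-C6 linker to NHS-Sepharose beads. Bound proteins were measured by label-free LC-MS/MS and normalised to the control.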

The target of another data set is T2, CPSF3 (UniProt Q9UKF6).
T2 sequence: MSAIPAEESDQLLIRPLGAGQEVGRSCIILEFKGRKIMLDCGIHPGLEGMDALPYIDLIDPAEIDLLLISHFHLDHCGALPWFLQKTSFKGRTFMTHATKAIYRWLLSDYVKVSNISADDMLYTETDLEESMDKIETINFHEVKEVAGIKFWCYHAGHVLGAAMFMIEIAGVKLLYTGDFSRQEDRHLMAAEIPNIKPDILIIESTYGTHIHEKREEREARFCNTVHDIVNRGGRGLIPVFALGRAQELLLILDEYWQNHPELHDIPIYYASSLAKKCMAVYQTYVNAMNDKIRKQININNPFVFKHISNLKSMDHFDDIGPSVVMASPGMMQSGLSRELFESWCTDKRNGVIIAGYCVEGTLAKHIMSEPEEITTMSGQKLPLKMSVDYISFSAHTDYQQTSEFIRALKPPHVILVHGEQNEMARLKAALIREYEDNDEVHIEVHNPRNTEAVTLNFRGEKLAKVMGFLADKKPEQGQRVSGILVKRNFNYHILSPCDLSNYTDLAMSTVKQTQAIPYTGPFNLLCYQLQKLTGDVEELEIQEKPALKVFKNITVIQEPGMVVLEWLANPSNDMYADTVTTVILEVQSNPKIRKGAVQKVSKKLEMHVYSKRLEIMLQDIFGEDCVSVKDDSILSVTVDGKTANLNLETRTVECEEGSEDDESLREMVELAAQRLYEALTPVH
A digest of the protocol:
as §1

The next data set has as its target T3, MEX3B (UniProt Q6ZN04).
T3 sequence: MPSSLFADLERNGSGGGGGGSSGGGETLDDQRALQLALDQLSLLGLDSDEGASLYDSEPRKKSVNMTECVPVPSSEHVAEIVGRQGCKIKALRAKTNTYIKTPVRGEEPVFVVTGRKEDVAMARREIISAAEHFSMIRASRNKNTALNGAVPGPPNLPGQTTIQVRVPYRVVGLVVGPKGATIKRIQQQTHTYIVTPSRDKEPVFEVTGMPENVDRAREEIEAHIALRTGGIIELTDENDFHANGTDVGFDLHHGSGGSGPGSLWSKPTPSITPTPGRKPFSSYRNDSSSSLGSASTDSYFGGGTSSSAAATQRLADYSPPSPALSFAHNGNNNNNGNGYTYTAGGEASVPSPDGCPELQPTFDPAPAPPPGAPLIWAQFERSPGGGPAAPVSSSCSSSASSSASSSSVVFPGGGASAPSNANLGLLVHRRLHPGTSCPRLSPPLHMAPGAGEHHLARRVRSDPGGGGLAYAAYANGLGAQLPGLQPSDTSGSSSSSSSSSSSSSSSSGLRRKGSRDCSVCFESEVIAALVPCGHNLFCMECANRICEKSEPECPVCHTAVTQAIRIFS
In outline: as §1

For another data set, the target named is T4, LSM7 (UniProt Q9UK45).
T4 sequence: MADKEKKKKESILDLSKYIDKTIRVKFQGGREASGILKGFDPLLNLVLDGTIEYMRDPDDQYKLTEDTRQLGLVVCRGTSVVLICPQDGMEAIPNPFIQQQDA
A digest of the protocol:
as §1

A further data set has as its target T5, RBM4 (UniProt Q9BWF3).
T5 sequence: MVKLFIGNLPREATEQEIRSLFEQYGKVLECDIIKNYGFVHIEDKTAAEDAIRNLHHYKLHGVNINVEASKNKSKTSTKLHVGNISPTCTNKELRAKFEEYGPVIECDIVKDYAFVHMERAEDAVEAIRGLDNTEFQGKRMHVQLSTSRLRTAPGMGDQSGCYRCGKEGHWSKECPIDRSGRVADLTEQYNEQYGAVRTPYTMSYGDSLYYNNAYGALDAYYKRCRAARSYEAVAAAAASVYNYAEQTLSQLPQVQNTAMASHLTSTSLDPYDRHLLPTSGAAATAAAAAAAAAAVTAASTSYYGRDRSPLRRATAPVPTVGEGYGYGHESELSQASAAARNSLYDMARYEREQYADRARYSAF
A digest of the protocol:
as §1

The target in a further data set is T6, LSM1 (UniProt O15116).
T6 sequence: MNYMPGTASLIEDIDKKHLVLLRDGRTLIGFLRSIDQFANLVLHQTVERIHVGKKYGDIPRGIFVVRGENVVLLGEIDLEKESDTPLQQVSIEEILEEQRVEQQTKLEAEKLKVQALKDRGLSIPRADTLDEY
In outline: as §1

Another data set concerns the target TOE1 (UniProt Q96GM8). In outline: as §1

On to AAUAAA, for which the EC50 (as a rule, the concentration needed to bring the measured effect to its halfway point) with ISY1 stood at 0.914 µM; with CPSF3, 0.0574 µM; with MEX3B, 1.64 µM; with LSM7 it was 0.655 µM; with RBM4, 4.16 µM; with LSM1, 0.188 µM. The EC50 with TOE1 is 2.11 µM.
On to CUGUCCU, for which the EC50 with RBM4 is 0.371 µM.
With UAUUUAU, the EC50 was found to be 0.724 µM in the data set with ISY1; 0.598 µM in the data set with CPSF3; 0.728 µM with MEX3B; 0.302 µM with LSM7; 0.395 µM with LSM1; 1.42 µM with TOE1.
